Data as given in article doi:10.1101/2023.10.30.564768 (2023).

T1: His-RecA WT, activated as RecA* (nucleoprotein filament on ssDNA with ATPγS) (E. coli, UniProt P0A7G6 1-353)
T1 chain: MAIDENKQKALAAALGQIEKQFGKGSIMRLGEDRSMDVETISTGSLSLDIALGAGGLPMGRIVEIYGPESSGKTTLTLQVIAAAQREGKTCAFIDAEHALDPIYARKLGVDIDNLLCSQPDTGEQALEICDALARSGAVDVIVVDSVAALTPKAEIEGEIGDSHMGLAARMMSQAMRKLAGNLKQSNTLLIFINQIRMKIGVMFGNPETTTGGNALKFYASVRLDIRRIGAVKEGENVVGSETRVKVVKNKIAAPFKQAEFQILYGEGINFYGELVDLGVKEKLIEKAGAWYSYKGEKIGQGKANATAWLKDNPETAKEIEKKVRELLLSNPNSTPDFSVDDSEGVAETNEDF


Target: T1, His-RecA WT, activated as RecA* …
Test: FP; competition against LexA-δ

Row | Binder | IC50 [nM]
1 | LexA quad-mutant (QM): L89P, Q92W, E152A, K156A (natural protein) MKALTARQQEVFDLIRDHISQTGMPPTRAEIAQRLGFRSPNAAEEHLKALARKGVIEIVSGASRGIRLLQEEEEGLPLVGRVAAGEPLPAQWHIEGHYQVDPSLFKPNADFLLRVSGMSMKDIGIMDGDLLAVHKTQDVRNGQVVVARIDDAVTVARLKKQGNKVELLPENSEFKPIVVDLRQQSFTIEGLAVGVIRNGDWL | 3800
2 | His-LexA K156A (natural protein) MKALTARQQEVFDLIRDHISQTGMPPTRAEIAQRLGFRSPNAAEEHLKALARKGVIEIVSGASRGIRLLQEEEEGLPLVGRVAAGEPLLAQQHIEGHYQVDPSLFKPNADFLLRVSGMSMKDIGIMDGDLLAVHKTQDVRNGQVVVARIDDEVTVARLKKQGNKVELLPENSEFKPIVVDLRQQSFTIEGLAVGVIRNGDWL | 500
